# In the RNAGym collection of RNA variant scans (doi:10.1073/pnas.2313332121):
# Fewer inactive variants are shown than the library holds.
# B1: TPR 5TU (parent)
# chain: GGAUCUUCUCGAUCUAACAAAAAAGACAAAUCUGCCACAAAGCUUGAGAGCAUCUUCGGAUGCAGAGGCGGCAGCCUUCGGUGGCGCGAUAGCGCCAACGUUCUCAACUAUGACACGCAAAACGCGUGCUCCGUUGAAUGGAGUUUAUCAUG
# Variants of: B1
# Test: polymerase ribozyme fitness, log enrichment relative to wild type (log ratio); higher = more active; in vitro selection for triplet polymerase activity
# Summary of the method: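 A single round of triplicate in vitro selection, including frozen incubation at −7 °C, was applied to PCR-built, transcribed mutant libraries of each subunit of a heterodimeric triplet polymerase ribozyme. Illumina sequencing of input and output libraries retained genotypes with ≥10 input reads and ≥1 read per output. Fitness is the base-2 logarithm of genotype enrichment divided by wild-type enrichment, from inverse-variance-weighted replicate averages.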
row,Variant,polymerase ribozyme fitness (log ratio)
1,GGAUCUUCUCGAUUUAACAAAAAAUACAAAGCUGCCACAAAGAUUGCGAGCAUCUUCGGAUACAGAGGCGGCAGCCUUCGGUGGCGCGAUGGCCCCAACGUUCCCAACUAUGACACGCAAAACGCGUGCUCCGUUGAUUCGAGUGUAUCAUG,≤ -4.2
2,GGAUCUUCUCGAUUCUACGAAAAAGACAAUUCUGCCACCAAGCUUGAUAACAUCUUCGGAUGCAGAGGCUGCAGCCUUCGGUGGCGCGAUAGCGCCAACGUUCUCAACUAUGUCACGCAAAACGCGUGCUCCGUUGAAUGUAGUUUAUCAUG,≤ -4.2
3,GGAUCUUCUCGAUUUAACAAAAAAGACAAAUCUGCCACAAAGCUUGAGAGCAUCUUCGGAUGCAGAGGCGGCAGCCUUCGGUGGAGCGAUAGCGCCAACGUUCUCAACUAUGACACGCAAAACGCGUGCUCCGUUGAAUGCAGUUUAUCAUG,-2.63
4,GGAUCUUCUCGAUUUAACAAAAAAGACAAAUCUGCCACAAAGCUUGAGAGCAUCUUCGAAUGCAGAGGCGGCAGCCUUCGGUGGCGUGAGAGCGCCAACGUUCUCAACUAUGAAACGCAAAACGCGUGCUCCGUUGAAUGGAGUUUAUCAUG,≤ -4.2
5,GGAUCUUCUCGAUUUAACAAAAAAGACAAAUCUGCCACAAAGCUUGAGAGCAUCUUCGGAUGCAGAGGCGGCAGCCUUCGGUGGCGCGAUAGUGCCAACGUUCUCAACUAUGACACGCAAAACGCGUGCUCCGUUGAAUGGAGUUUAUCAUG,-2.62
6,GGAUCUUCUCGAUUUAACAAAAAAGACAAAUCUGCCACAAAGCUAGAGACCAUCUUAGGAUGCAGAGGCGGCAGCCUUCGGUGGCGCGAUUGCGCCAACGUUGUAAACUAUGACACGCAAAACGCGUGCUCCGUUGAAUGGAGUUUAUCAUG,≤ -4.2
7,GGAUCUUCUCGAUUUAACAAAAAAGACAAAUCUGCCACAAAGCUUGAGAGCAUCUUCGGAUGCAGAGGCGGCAGCCUUCGGUGGAGCGAUAGCGCCAACGUUCUCAACUAUGACACGCAAAACGCGUGCUCCGUUGAAUGGAGUUUAUCAUG,-2.54
8,GGAUCUUCUCGAUUUAACAAAAAAGACAAAUCUGCCACAAAGCUUGAGAGCAUCUUCGGAUGCAGAGGCGGCAGCCUUCGGUAGCGCGAUAGCGCCAACGUUCUCAACUAUGACAAGCAAAACGCGUGCUCCGUUGAAUGAAGUUUAUCAUG,-3.95
9,GGAUCUUCUCGAUUUAACAAAAAAGACAAAUCUGCCACAAAGCUUGAGAGUAUCUUCGGAUGCAGAGGCGGCAGCCUUCGGUGGCGCGAUAGCGCCAACGUUCUCAACUAUGACACGCAAAACGCGUGCUCCGUCGAAUGGAGUUUAUCAUG,-3.66
10,GGAUCUUCUCGAUUUAACAAAAAAGACAAAUCUGCCACAAAGCUUGAGAGCAUCUUCGGAUGCAGAGGCGGCAGCCUUCGGUGGCGCGAUAGCACCAACGUUCUCAAUUAUGACACGCAAAACGCGUGCUCCGUUGUAUGGAGUUUAUCAUG,-4.03
11,GGAUCUUCUCGAUUUAACAAAAAAGACAAAUCUACCACAAAGCUUGAGAGCAUCUUCGGAUGCAGAGGCGGCAGCCUUCGGUGUCGCGAUAGCGCCAACGUUCUCAACUAUGACACGCAAAACGCGUGCUCCGUUGAAUUGAGUUUAUCAUG,≤ -4.2
12,GGAUCUUCUCGAUUUAACAAAAAAGACAAAUCUGCCACAAAGCAUGAGAGCAUCUUCGGAUGCAGAGGCGGCAGCCUUCGGUGGCGCGAUAGCGCCAACGUUCUCAACUAUGACACGCAAAACGCGUGCUCCGUUGAAUGGAGUUUAUCAUG,≤ -4.2
13,GGAUCUUCUCGAUUUAACAAAAAAGACAAAUCUGCCACAAAGCUUGAGAGCAUCUUCUGAUGCAGAGGCGGCAGCCUUCGGUGGCGCGAUAGCGCCAACGUUCUCAACUAUGACACGCAAAACGCGUGCUCCGUUGAAUGGAGUUUAUCAUG,-0.884
14,GGAUCUUCUCGAUUUAACAAAAAAGACAAAUCUGCCACAAAGCUUGAGAGUAUCUUCGGAUGCAGGGGCGGCAGCCUUCGGUGGCGAGAUAGCGCCAACGUUCUCAACUAUGACAUGCAAAACGCGUGCUCCGUUGAAUGGAGUUUACCAUG,≤ -4.2
15,GGAUCUUCUCGAUUUAACAAAAAAGACAAAUCUGCCACAAAGCUUGAGAGCAUCUUCGGAUGCAGAGGCGGCAGCCUUCGGUGGCGCGAUAGCGCUAACGUUCUCAACUAUGACACGCAAAACGCGUGCUCCGUUGAAUGGAGUUUAUCAUG,-0.908
16,GGAUCUUCUCGAUUAAACAGAAAAGACAAAUCUGCCAUAAAGCUUGAGAGCAUCUUUGGAUGCAGAGGCGGCAGCCUUCGGUGGCGCGACAGCGCCAACGUGCUCAACUAUGACACGCGAACCGCGUGCUCCGUUGAAUGGAGUUUAUCAUG,≤ -4.2
17,GGAUCUUCUCGAUUUAACAAAAAAGACAAAUCUGCCACAAAGCUUGAGAGCAUCUUCGGAUGCAGAGGCGGCAGCCUUCGGUGGCGCGAUAGCGCCAAAGUUCUCAACUAUGACACGCAAAACGCGUGCUCCGUUAAAUGGAGUUUAUCAUG,-2.47
18,GGAUCUUCUCGAUUUAACAAAAAAGACAAAUCUGCCACAAAGCUUGAGAGCAUCUUCGGAUGCACAGGCGGCAGCCUUCGGUGGCGGGAUAGCGCUAACGUUCUCAACUAUGACACGCAAAACGCGUGCUCUGUUGAAGGGAGUUUAUCAUG,≤ -4.2
19,GGAUCUUCUCGAUUUAACAAAAAAGACAAAUCUGCCACAAAGCUUGAGAGCAUCUUCGGAUGCAGAGGCGGCAGCCUUCGGUGGCUCGAUAGCGCCAACGUUCUCAACUAUGACACGCAAAACGCGUGCUCCGUUGAAUGGAGUUUAUCAUG,-3.21
